# According to US20140087995A1 (published 2014):
# Numbered stars: 1 amine (or outer) side, 2 acyl side, 3 side chain; on linkers, the order of the positions; unused ones are H or OH. Bridge positions count the residues as written; N and C are the ends. Side chains are listed from the residue outwards. Ends that are not written are not given here. * marks the point of attachment. C20 diacid = O=C(O)CCCCCCCCCCCCCCCCCCC(=O)*; γGlu = O=C(O)[C@H](CCC(=O)[*:2])N[*:1]; AEEA = NCCOCCOCC(=O)O
# T1: human calcitonin receptor (human, UniProt P30988 25-474)
# T1 construct: whole, on cells; Used as cell membranes prepared from the transfected BHK cells (Assay VII), not as intact cells; also called hCTR; hCT
# T1 sequence (looked up): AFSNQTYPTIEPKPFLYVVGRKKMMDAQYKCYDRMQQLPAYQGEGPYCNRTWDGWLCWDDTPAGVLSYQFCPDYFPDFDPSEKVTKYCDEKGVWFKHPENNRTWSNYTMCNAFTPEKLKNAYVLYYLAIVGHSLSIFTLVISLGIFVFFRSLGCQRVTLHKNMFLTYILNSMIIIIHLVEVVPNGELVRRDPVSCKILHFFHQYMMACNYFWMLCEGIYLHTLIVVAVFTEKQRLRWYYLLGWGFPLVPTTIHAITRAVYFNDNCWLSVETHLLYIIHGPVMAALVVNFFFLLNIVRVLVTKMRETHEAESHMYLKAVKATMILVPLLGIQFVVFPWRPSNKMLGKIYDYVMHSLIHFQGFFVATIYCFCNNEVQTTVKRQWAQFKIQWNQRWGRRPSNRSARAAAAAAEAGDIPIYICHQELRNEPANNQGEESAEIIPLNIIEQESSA
# Target: T1, human calcitonin receptor
# Assay: SPA competition against 125I-calcitonin, membranes with human calcitonin receptor (Assay VII)
# Procedure, shortened: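 BHK hCTR membranes 35 ng/μL + SPA beads 0.05 mg/well; buffer 50 mM Hepes pH 7.4, 1 mM CaCl2, 5 mM MgCl₂, 0.1% OA, 0.02% Tween20. 120 min, 25° C., shaking. Scintillation count; IC50 by one-site binding competition.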
row,Binder,IC50 [nM]
1,"K([AEEA-γGlu-C20 diacid])RCNTATCATQRLANFLRHSSPNFGAIPSSTNVGSHTY-NH2 (disulfide 3-8; N-terminus assumed; SMILES CC[C@H](C)[C@H](NC(=O)[C@H](C)NC(=O)CNC(=O)[C@H](Cc1ccccc1)NC(=O)[C@H](CC(N)=O)NC(=O)[C@@H]1CCCN1C(=O)[C@H](CO)NC(=O)[C@H](CO)NC(=O)[C@H](Cc1c[nH]cn1)NC(=O)[C@H](CCCNC(=N)N)NC(=O)[C@H](CC(C)C)NC(=O)[C@H](Cc1ccccc1)NC(=O)[C@H](CC(N)=O)NC(=O)[C@H](C)NC(=O)[C@H](CC(C)C)NC(=O)[C@H](CCCNC(=N)N)NC(=O)[C@H](CCC(N)=O)NC(=O)[C@@H](NC(=O)[C@H](C)NC(=O)[C@@H]1CSSC[C@H](NC(=O)[C@H](CCCNC(=N)N)NC(=O)[C@@H](N)CCCCNC(=O)COCCOCCNC(=O)CC[C@H](NC(=O)CCCCCCCCCCCCCCCCCCC(=O)O)C(=O)O)C(=O)N[C@@H](CC(N)=O)C(=O)N[C@@H]([C@@H](C)O)C(=O)N[C@@H](C)C(=O)N[C@@H]([C@@H](C)O)C(=O)N1)[C@@H](C)O)C(=O)N1CCC[C@H]1C(=O)N[C@@H](CO)C(=O)N[C@@H](CO)C(=O)N[C@H](C(=O)N[C@@H](CC(N)=O)C(=O)N[C@H](C(=O)NCC(=O)N[C@@H](CO)C(=O)N[C@@H](Cc1c[nH]cn1)C(=O)N[C@H](C(=O)N[C@@H](Cc1ccc(O)cc1)C(N)=O)[C@@H](C)O)C(C)C)[C@@H](C)O, also called compound 45)",14.8
2,"K([AEEA-C20 diacid])CNTATCATQRLANFLRHSSPNFGAIPSSTNVGSNTY-NH2 (disulfide 2-7; N-terminus assumed; SMILES CC[C@H](C)[C@H](NC(=O)[C@H](C)NC(=O)CNC(=O)[C@H](Cc1ccccc1)NC(=O)[C@H](CC(N)=O)NC(=O)[C@@H]1CCCN1C(=O)[C@H](CO)NC(=O)[C@H](CO)NC(=O)[C@H](Cc1c[nH]cn1)NC(=O)[C@H](CCCNC(=N)N)NC(=O)[C@H](CC(C)C)NC(=O)[C@H](Cc1ccccc1)NC(=O)[C@H](CC(N)=O)NC(=O)[C@H](C)NC(=O)[C@H](CC(C)C)NC(=O)[C@H](CCCNC(=N)N)NC(=O)[C@H](CCC(N)=O)NC(=O)[C@@H](NC(=O)[C@H](C)NC(=O)[C@@H]1CSSC[C@H](NC(=O)[C@@H](N)CCCCNC(=O)COCCOCCNC(=O)CCCCCCCCCCCCCCCCCCC(=O)O)C(=O)N[C@@H](CC(N)=O)C(=O)N[C@@H]([C@@H](C)O)C(=O)N[C@@H](C)C(=O)N[C@@H]([C@@H](C)O)C(=O)N1)[C@@H](C)O)C(=O)N1CCC[C@H]1C(=O)N[C@@H](CO)C(=O)N[C@@H](CO)C(=O)N[C@H](C(=O)N[C@@H](CC(N)=O)C(=O)N[C@H](C(=O)NCC(=O)N[C@@H](CO)C(=O)N[C@@H](CC(N)=O)C(=O)N[C@H](C(=O)N[C@@H](Cc1ccc(O)cc1)C(N)=O)[C@@H](C)O)C(C)C)[C@@H](C)O, also called compound 43) [N^ε1-[2-[2-[2-(19-carboxynonadecanoylamino)ethoxy]ethoxy]acetyl]-[Arg17,Pro21,Pro27]-h-amylin]",2.64
3,"K([γGlu-C20 diacid])RCNTATCATQRLANFLRHSSPNFGAIPSSTNVGSHTY-NH2 (disulfide 3-8; N-terminus assumed; SMILES CC[C@H](C)[C@H](NC(=O)[C@H](C)NC(=O)CNC(=O)[C@H](Cc1ccccc1)NC(=O)[C@H](CC(N)=O)NC(=O)[C@@H]1CCCN1C(=O)[C@H](CO)NC(=O)[C@H](CO)NC(=O)[C@H](Cc1c[nH]cn1)NC(=O)[C@H](CCCNC(=N)N)NC(=O)[C@H](CC(C)C)NC(=O)[C@H](Cc1ccccc1)NC(=O)[C@H](CC(N)=O)NC(=O)[C@H](C)NC(=O)[C@H](CC(C)C)NC(=O)[C@H](CCCNC(=N)N)NC(=O)[C@H](CCC(N)=O)NC(=O)[C@@H](NC(=O)[C@H](C)NC(=O)[C@@H]1CSSC[C@H](NC(=O)[C@H](CCCNC(=N)N)NC(=O)[C@@H](N)CCCCNC(=O)CC[C@H](NC(=O)CCCCCCCCCCCCCCCCCCC(=O)O)C(=O)O)C(=O)N[C@@H](CC(N)=O)C(=O)N[C@@H]([C@@H](C)O)C(=O)N[C@@H](C)C(=O)N[C@@H]([C@@H](C)O)C(=O)N1)[C@@H](C)O)C(=O)N1CCC[C@H]1C(=O)N[C@@H](CO)C(=O)N[C@@H](CO)C(=O)N[C@H](C(=O)N[C@@H](CC(N)=O)C(=O)N[C@H](C(=O)NCC(=O)N[C@@H](CO)C(=O)N[C@@H](Cc1c[nH]cn1)C(=O)N[C@H](C(=O)N[C@@H](Cc1ccc(O)cc1)C(N)=O)[C@@H](C)O)C(C)C)[C@@H](C)O, also called compound 44)",4.87
4,"{C20 diacid-γGlu}-GRCNTATCATQRLANFLRHSSPNFGAIPSSTNVGSNTY-NH2 (disulfide 3-8; SMILES CC[C@H](C)[C@H](NC(=O)[C@H](C)NC(=O)CNC(=O)[C@H](Cc1ccccc1)NC(=O)[C@H](CC(N)=O)NC(=O)[C@@H]1CCCN1C(=O)[C@H](CO)NC(=O)[C@H](CO)NC(=O)[C@H](Cc1c[nH]cn1)NC(=O)[C@H](CCCNC(=N)N)NC(=O)[C@H](CC(C)C)NC(=O)[C@H](Cc1ccccc1)NC(=O)[C@H](CC(N)=O)NC(=O)[C@H](C)NC(=O)[C@H](CC(C)C)NC(=O)[C@H](CCCNC(=N)N)NC(=O)[C@H](CCC(N)=O)NC(=O)[C@@H](NC(=O)[C@H](C)NC(=O)[C@@H]1CSSC[C@H](NC(=O)[C@H](CCCNC(=N)N)NC(=O)CNC(=O)CC[C@H](NC(=O)CCCCCCCCCCCCCCCCCCC(=O)O)C(=O)O)C(=O)N[C@@H](CC(N)=O)C(=O)N[C@@H]([C@@H](C)O)C(=O)N[C@@H](C)C(=O)N[C@@H]([C@@H](C)O)C(=O)N1)[C@@H](C)O)C(=O)N1CCC[C@H]1C(=O)N[C@@H](CO)C(=O)N[C@@H](CO)C(=O)N[C@H](C(=O)N[C@@H](CC(N)=O)C(=O)N[C@H](C(=O)NCC(=O)N[C@@H](CO)C(=O)N[C@@H](CC(N)=O)C(=O)N[C@H](C(=O)N[C@@H](Cc1ccc(O)cc1)C(N)=O)[C@@H](C)O)C(C)C)[C@@H](C)O, also called compound 46) [N^-1-[(4S)-4-carboxy-4-(19-carboxynonadecanoylamino)butanoyl]-Gly[Arg1,Arg17,Pro21,Pro27]-h-amylin]",9.53
5,"{C20 diacid-γGlu}-GRCNTATCATQRLANFLRHSSPNFGAIPSSTNVGSHTY-NH2 (disulfide 3-8; SMILES CC[C@H](C)[C@H](NC(=O)[C@H](C)NC(=O)CNC(=O)[C@H](Cc1ccccc1)NC(=O)[C@H](CC(N)=O)NC(=O)[C@@H]1CCCN1C(=O)[C@H](CO)NC(=O)[C@H](CO)NC(=O)[C@H](Cc1c[nH]cn1)NC(=O)[C@H](CCCNC(=N)N)NC(=O)[C@H](CC(C)C)NC(=O)[C@H](Cc1ccccc1)NC(=O)[C@H](CC(N)=O)NC(=O)[C@H](C)NC(=O)[C@H](CC(C)C)NC(=O)[C@H](CCCNC(=N)N)NC(=O)[C@H](CCC(N)=O)NC(=O)[C@@H](NC(=O)[C@H](C)NC(=O)[C@@H]1CSSC[C@H](NC(=O)[C@H](CCCNC(=N)N)NC(=O)CNC(=O)CC[C@H](NC(=O)CCCCCCCCCCCCCCCCCCC(=O)O)C(=O)O)C(=O)N[C@@H](CC(N)=O)C(=O)N[C@@H]([C@@H](C)O)C(=O)N[C@@H](C)C(=O)N[C@@H]([C@@H](C)O)C(=O)N1)[C@@H](C)O)C(=O)N1CCC[C@H]1C(=O)N[C@@H](CO)C(=O)N[C@@H](CO)C(=O)N[C@H](C(=O)N[C@@H](CC(N)=O)C(=O)N[C@H](C(=O)NCC(=O)N[C@@H](CO)C(=O)N[C@@H](Cc1c[nH]cn1)C(=O)N[C@H](C(=O)N[C@@H](Cc1ccc(O)cc1)C(N)=O)[C@@H](C)O)C(C)C)[C@@H](C)O, also called compound 47)",15.5
6,"K([AEEA-γGlu-C20 diacid])CNTATCATQRLANFLRHSSPNFGAIPSSTNVGSNTY-NH2 (disulfide 2-7; N-terminus assumed; SMILES CC[C@H](C)[C@H](NC(=O)[C@H](C)NC(=O)CNC(=O)[C@H](Cc1ccccc1)NC(=O)[C@H](CC(N)=O)NC(=O)[C@@H]1CCCN1C(=O)[C@H](CO)NC(=O)[C@H](CO)NC(=O)[C@H](Cc1c[nH]cn1)NC(=O)[C@H](CCCNC(=N)N)NC(=O)[C@H](CC(C)C)NC(=O)[C@H](Cc1ccccc1)NC(=O)[C@H](CC(N)=O)NC(=O)[C@H](C)NC(=O)[C@H](CC(C)C)NC(=O)[C@H](CCCNC(=N)N)NC(=O)[C@H](CCC(N)=O)NC(=O)[C@@H](NC(=O)[C@H](C)NC(=O)[C@@H]1CSSC[C@H](NC(=O)[C@@H](N)CCCCNC(=O)COCCOCCNC(=O)CC[C@H](NC(=O)CCCCCCCCCCCCCCCCCCC(=O)O)C(=O)O)C(=O)N[C@@H](CC(N)=O)C(=O)N[C@@H]([C@@H](C)O)C(=O)N[C@@H](C)C(=O)N[C@@H]([C@@H](C)O)C(=O)N1)[C@@H](C)O)C(=O)N1CCC[C@H]1C(=O)N[C@@H](CO)C(=O)N[C@@H](CO)C(=O)N[C@H](C(=O)N[C@@H](CC(N)=O)C(=O)N[C@H](C(=O)NCC(=O)N[C@@H](CO)C(=O)N[C@@H](CC(N)=O)C(=O)N[C@H](C(=O)N[C@@H](Cc1ccc(O)cc1)C(N)=O)[C@@H](C)O)C(C)C)[C@@H](C)O, also called compound 41)",21.3
